Laboratory results taken from patent US20190048049A1 (CERENIS THERAPEUTICS, published 2019).
Ends that are not written are not given here.

Biological target: T1, ApoA-I (human, UniProt P02647 25-267)
T1 construct: Stands in Cargomers as a monomer or multimer (1-8 molecules); also called apolipoprotein A-I; ApoA1
Experiment: size exclusion chromatography of ApoA-I:M30 Cargomers, with increased temperature

T1 sequence (P02647 25-267 limits assumed): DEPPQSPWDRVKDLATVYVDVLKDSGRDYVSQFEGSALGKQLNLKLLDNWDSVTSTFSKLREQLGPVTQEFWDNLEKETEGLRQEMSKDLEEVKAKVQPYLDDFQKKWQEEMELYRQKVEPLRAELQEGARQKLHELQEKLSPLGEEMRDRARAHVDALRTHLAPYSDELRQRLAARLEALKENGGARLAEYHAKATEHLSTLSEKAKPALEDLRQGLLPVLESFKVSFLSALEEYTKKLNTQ

binding result: binds
B1: M30 tumor antigen peptide coupled to PDP-PE lipid (peptide)
peptide: CSSVDWENVSPELNSTDQ
modifications: also: reacted with PDP-PE lipid, residue of attachment not given here
notes: Lipid-anchored peptide cargo of ApoA-I Cargomers (ApoA-I:TA molar ratios 1:2 and 1:4); also called TA peptide M30
